These results are taken from US20230028110A1 (ADAPTATE BIOTHERAPEUTICS, published 2023).

Where two headings read alike, the source gives them in different places.

Assay [1] has as its target T1, Vδ1 chain of the γδ TCR on human Vδ1 γδ T cells (human).
T1 construct: whole, on cells; also called cell surface Vδ1 TCR; Vδ1-positive γδ T cells
The assay is described as follows: flow cytometry binding to Vδ1 γδ T cells, donor TS164; column head printed 'IC50', unit nM from the chart axis and FIG. 34D.
Description: (§1) All incubation steps were performed at 4° C. and mAb binding was determined using flow cytometry to measure the median level of fluorescence. Logarithmic four parameter dose-response curves were fitted using GraphPad Prism 9. […] For Vδ1-positive γδ T cell, data is represented as the mean two donors.
(§2) A range of target cells were assayed to determine the specificity and affinity of Vδ1 mAb binding. This included expanded skin-derived Vδ1 γδ T-cells, HEK293T cells, Raji cells, and multiple leukocyte subsets within human primary blood mononuclear cells. Adherent or semi-adherent cells (skin-derived Vδ1 γδ T-cells, HEK293T) were detached from tissue culture flask and resuspended in PBS. Similarly, non-adherent cell types (Raji, PBMC), were harvested and resuspended in PBS. Cells were seeded at a final density of 100,000 cells per well in v-bottom 96-well plates. Cells underwent centrifugation and the cell pellets were resuspended in FcR blocking reagent according to the manufacturer's instructions, and incubated for 20 minutes at 4C prior to a further wash. […] To determine the quantity of mAb bound to the cell surface, the cells were then stained with a murine anti-human IgG secondary antibody, conjugated to APC (dilution: 1:100). For Vδ1 γδ T-cells, HEK293T and Raji, the cells were also stained solely with a viability dye.

The target in assay [2] is T1, Vδ1 chain of the γδ TCR on human Vδ1 γδ …. Description: flow cytometry binding to Vδ1 γδ T cells, donor ATS006; column head printed 'IC50', unit nM from the chart axis and FIG. 34D.
Description: as §1, §2
Assay [3] concerns the target T2, L1 (DV1-GV4), soluble human Vδ1/Vγ4 γδ TCR heterodimer in leucine zipper format (human).
T2 construct: Biotinylated in the DELFIA ranking; also called Antigen L1 (TRDV1/TRGV4); human DV1-GV4; not shown: gamma chain: Vγ4 (TRGV4) domain on a TCR constant region, leucine zipper, histidine tag
Description: DELFIA, 100 nM biotinylated L1.

For assay [4], the target named is T2, L1 (DV1-GV4), soluble human Vδ1/Vγ4 γδ …. The assay is described as follows: DELFIA ELISA, 0.4 nM human TRDV1 antigen; heat map cell of the clone.
Assay [5] deals with T3, Cyno DV1/GV77 antigen, recombinant cynomolgus Vδ1 heterodimer (cynomolgus monkey).
T3 construct: also called cyno TRDV1; Cyno DV1-77; not shown: delta CDR3/J, TCR constant region, zipper and tag; the whole gamma chain GV77
T3 sequence (delta, as listed by the source limits assumed): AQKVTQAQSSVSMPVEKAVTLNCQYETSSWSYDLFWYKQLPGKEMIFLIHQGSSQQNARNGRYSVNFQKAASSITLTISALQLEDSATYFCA
The assay is described as follows: DELFIA ELISA, cyno antigen; heat map cell of the clone.

For assay [6], the target named is T1, Vδ1 chain of the γδ TCR on human Vδ1 γδ …. The assay is described as follows: cell-based or functional assay.
Assay [7] addresses T2, L1 (DV1-GV4), soluble human Vδ1/Vγ4 γδ …. Description: SPR (Reichert 4SPR), antibody on Protein A chip, human Vδ1 antigen as analyte; average of two replicates on two instruments.
Description: (§3) The binding affinity of the antibodies to target (i.e. the Vδ1 chain of a γδ TCR) is established by SPR analysis using a Reichert 4SPR instrument (Reichert Technologies).
(§4) The binding interaction of Vδ1 and the affinity-matured mAbs were modelled according to Langmuir 1:1 binding.
The target in assay [8] is T1, Vδ1 chain of the γδ TCR on human Vδ1 γδ …. The assay is described as follows: cell-based or functional assay. The source holds these as a separate data set.
Assay [9] concerns the target T2, L1 (DV1-GV4), soluble human Vδ1/Vγ4 γδ …. The assay is described as follows: SPR (Reichert 4SPR), antibody on Protein A chip, Vδ1 heterodimer at 6.25-100 nM as analyte.
For assay [10], the target named is T3, Cyno DV1/GV77 antigen, recombinant …. Described as above.
The target of assay [11] is T4, Her2 on Her2+ breast cancer cells (SK-BR-3, BT-474) (human, UniProt P04626 23-1255).
T4 construct: whole, on cells; also called ErbB-2; CD340
Description: flow cytometry on SK-BR-3 cells, anti-human IgG secondary antibody.

The target of assay [12] is T2, L1 (DV1-GV4), soluble human Vδ1/Vγ4 γδ …. Description: DELFIA ELISA on antigen L1 (TRDV1/TRGV4), 1/2 dilution series of mAb.
Assay [13] deals with T3, Cyno DV1/GV77 antigen, recombinant …. The assay is described as follows: SPR (Reichert 4SPR), antibody on Protein A chip.
For assay [14], the target named is T2, L1 (DV1-GV4), soluble human Vδ1/Vγ4 γδ …. The assay is described as follows: SPR (summary table).
For assay [15] the target is unchanged. Description: SPR, captured IgG, human DV1-GV4 flown over.
Assay [16] addresses T1, Vδ1 chain of the γδ TCR on human Vδ1 γδ …. The assay is described as follows: cell-based or functional assay. This is another data set of the same source.
For assay [17] the target is unchanged. Description: cell-based or functional assay. This is another data set of the same source.
The target is the same in assay [18]. The assay is described as follows: cell-based or functional assay. The source holds these as a separate data set.
In assay [19] the target is T2, L1 (DV1-GV4), soluble human Vδ1/Vγ4 γδ …. Description: SPR (Reichert 4SPR), antibody on Protein A chip, human Vδ1 antigen as analyte; average of two replicates on two instruments. The source holds these as a separate data set.
Description: as §3, §4
Assay [20] shares this target. Description: DELFIA ELISA, human antigen; heat map cell of the clone.
Assay [21] deals with T1, Vδ1 chain of the γδ TCR on human Vδ1 γδ …. Description: flow cytometry, Vδ1 γδ T cells of donor TS164, mAb titrated up to about 500 nM at 4 C, anti-human IgG detection.
Description: as §1, §2
For assay [22] the target is unchanged. Description: flow cytometry, Vδ1 γδ T cells of donor ATS006, mAb titrated up to about 500 nM at 4 C, anti-human IgG detection.
Description: as §1, §2
Assay [23] deals with T2, L1 (DV1-GV4), soluble human Vδ1/Vγ4 γδ …. Description: SPR (Reichert 4SPR), antibody on Protein A chip, antigen flown over.
Description: Recombinant human Vδ1 heterodimer or human 4-1BB was flown over the cell at a top concentration of 100 nM.
Assay [24] deals with T1, Vδ1 chain of the γδ TCR on human Vδ1 γδ …. The assay is described as follows: cell-based or functional assay. The source holds these as a separate data set.
The target of assay [25] is 4-1BB on 4-1BB+ NFAT Jurkat cells (human, UniProt Q07011). Description: cell-based or functional assay.
4-1BB on 4-1BB+ NFAT Jurkat cells, sequence (Q07011 24-255 limits assumed): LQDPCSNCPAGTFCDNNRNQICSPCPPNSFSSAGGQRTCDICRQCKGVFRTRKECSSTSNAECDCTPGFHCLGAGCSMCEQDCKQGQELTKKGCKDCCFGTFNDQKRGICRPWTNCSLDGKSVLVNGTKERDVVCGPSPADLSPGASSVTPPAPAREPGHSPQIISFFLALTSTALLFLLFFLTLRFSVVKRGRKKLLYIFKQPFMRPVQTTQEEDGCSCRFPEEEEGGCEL
In assay [26] the target is T1, Vδ1 chain of the γδ TCR on human Vδ1 γδ …. Description: flow cytometry on Vδ1 γδ T-cells, anti-human IgG secondary antibody, % cells bound IgG.
For assay [27] the target is unchanged. Description: cell-based or functional assay. The source holds these as a separate data set.

T1 sequence (A0A1B0GX56 22-115, stated change not applied): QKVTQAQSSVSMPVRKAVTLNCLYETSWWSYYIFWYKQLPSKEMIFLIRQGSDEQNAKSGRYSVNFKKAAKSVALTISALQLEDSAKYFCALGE
T2 sequence (main, as listed by the source): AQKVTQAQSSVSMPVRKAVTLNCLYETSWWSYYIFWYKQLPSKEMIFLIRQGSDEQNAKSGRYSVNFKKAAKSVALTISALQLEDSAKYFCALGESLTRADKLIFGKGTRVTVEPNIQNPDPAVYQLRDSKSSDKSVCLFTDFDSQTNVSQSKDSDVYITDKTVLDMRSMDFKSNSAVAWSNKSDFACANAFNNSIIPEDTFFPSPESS

B1: 1245_P02_G04 (antibody, IgG1, V domains shown)
VH: QVQLQQSGPGLVKPSQTLSLTCAISGDSVSSKSAAWNWIRQSPSRGLEWLGRTYYRSKWSTDYAASVKSRITINPDTSKNQLSLQLNSVTPEDTAVYYCARTWSGYVDVWGQGTLVTVSS
VL: DIQMTQSPPALSASVGDRVTITCRASQDINDWLAWYQHKPGKAPKLLIYDASSLESGVPSRFSGSGSGTEFTLTISSLQPDDFATYYCQQSYSTPQVTFGQGTRLEIK
notes: also called ADT1-4; parental ADT1-4
B1: the concentration giving a half-maximal response (EC50) came out at 576 nM in assay [1] and 108 nM in assay [2]. Further, the “DELFIA signal at 100 nM L1” value in [3] came to 5900 fluorescence units. Moreover, the “ELISA signal (heat map)” value in assay [4] amounted to 1200; in [5] it was 196. For the same molecule, the “IC50 TCR DR (no THP-1)” value in [6] is 38.2 nM. Besides, the “IC90 TCR DR (noTHP-1)” value in [6] was 72.4 nM. In addition, the dissociation constant Kd in assay [7] was 149 nM; in assay [9], 47 nM; in assay [10], 397 nM. Moreover, the “TCR downregulation IC50, soluble assay, added in solution” value in assay [8] came to 38.3 nM. In assay [11], the binding result is listed as “no binding (tested: about 300 nM)”. Besides, the “EC50 (read off the curve)” value in assay [12] was approximately 0.07 mg/L.

B2: ADT1-4 (S74L) (antibody, V domains shown)
VH: QVQLQQSGPGLVKPSQTLSLTCAISGDSVSSKSAAWNWIRQSPSRGLEWLGRTYYRSKWSTDYAASVKSRITINPDTSKNQLSLQLNSVTPEDTAVYYCARTWSGYVDVWGQGTLVTVSS
VL: DIQMTQSPPALSASVGDRVTITCRASQDINDWLAWYQHKPGKAPKLLIYDASSLESGVPLRFSGSGSGTEFTLTISSLQPDDFATYYCQQSYSTPQVTFGQGTRLEIKR
notes: Captured on Protein A; also called ADT1-4 (574L)
In the case of B2, the Kd in [9] was 3.5 nM; in assay [10] it was 77 nM. Besides, the “fold increase in affinity against ADT1-4” value in [13] is approximately 5 fold.

B3: ADT1-4-1 (antibody, IgG1, V domains shown)
VH: EVQLQQSGPGLVKPSQTLSLTCAISGDSVSSKSAAWNWIRQSPSRGLEWLGRTYYRSKWSTDYAASVKSRITINPDTSKNQLSLQLNSVTPEDTAVYYCARTWVGYADVWGQGTLVTVSS
VL: DIQMTQSPPALSASVGDRVTITCRASQDINDWLAWYQHKPGKAPKLLIYDASSLESGVPLRFSGSGSGTEFTLTISSLQPDDFATYYCQQRYSTPIVTFGQGTRLEIK
notes: IgG1
As to B3, the Kd in assay [14] and in [15] was 0.08 nM throughout.

B4: ADT1-4-86 (antibody, IgG1, V domains shown)
VH: EVQLQQSGPGLVKPSQTLSLTCAISGDSVSSKSVAWNWIRQSPSRGLEWLGRTYYRSKWSTDYAASVKSRITINPDTSKNQLSLQLNSVTPEDTAVYYCARTWLGNVDVWGQGTLVTVSS
VL: DIQMTQSPPALSASVGDRVTITCRASQDINDWLAWYQHKPGKAPKLLIYDASSLESGVPLRFSGSGSGTEFTLTISSLQPDDFATYYCQQKYSEPQVTFGQGTRLEIK
As to B4, in assay [6], the “IC90 TCR DR (noTHP-1)” value stood at 1 nM.

B5: 1251_P02_G10 (antibody, IgG1, V domains shown)
VH: EVQLVESGGGLVQPGGSLRLSCAASGFTFSDYYMSWIRQAPGKGLEWVSYISSSGSTIYYADSVKGRFTISRDNAKNSLYLQMNSLRAEDTAVYYCARHSWNDAFDIWGRGTLVTVSS
VL: DIQMTQSPSSLSASVGDRVTITCRASQSISSHLNWYQQKPGKAPKLLIYAASSLQSGVPSRFSASGSGTDFTLTISSLQPEDFATYYCQQSYSTLLTFGGGTKVEIK
notes: IgG1
In the case of B5, in assay [3], the “DELFIA signal at 100 nM L1” value stood at 17100 fluorescence units. Also, in assay [16], the “TCR downregulation (EC50 µg/ml-3 donors)” value was determined as 0.849 mg/L.

B6: ADT1-7-61 (antibody, IgG1, V domains shown)
VH: EVQLVESGGGLVKPGGSLRLSCAASGFTFSDYYMSWIRQAPGKGLEWVSYISSSGSTIYYADSVKGRFTISRDNAKNSLYLQMNSLRAEDTAVYYCARDDYDDAFDIWGQGTLVTVSS
VL: DIQMTQSPSSLSASVGDRVTIACRAGQSIGTYLNWYQQKPGKAPKLLIYVASSLQSGVPSRFSGSGSGTEFTLTISSLQPEDFATYYCQQSASELLTFGRGTKVEIK
notes: IgG1
As to B6, in [17], the “IC50 TCR DR (no THP-1), one donor only” value came out at 0.173 nM. For the same molecule, the EC50 in [1] came to 196 nM; in assay [2], 93 nM. For the same molecule, the “IC50 of TCR downregulation (Vδ1 TCR staining as % MFI, soluble antibody, 2 h, average of two γδ cell donors)” value in assay [18] stood at 6.26 nM. This molecule yielded a Kd in [19] of 1.04 nM. Further, the “ELISA signal (heat map)” value in [20] turned out to be 32700.

B7: ADT1-7-3 (antibody, IgG1, V domains shown)
VH: EVQLVESGGGLVKPGGSLRLSCAASGFTFSDYYMSWIRQAPGKGLEWVSYISSSGSTIYYADSVKGRFTISRDNAKNSLYLQMNSLRAEDTAVYYCARVSYAEAFDIWGQGTLVTVSS
VL: DIQMTQSPSSLSASVGDRVTIACRAGQSIGTYLNWYQQKPGKAPKLLIYVASSLQSGVPSRFSGSGSGTEFTLTISSLQPEDFATYYCQQSYSGLDTFGRGTKVEIK
notes: IgG1
On to B7, for which the “IC50 TCR DR (no THP-1)” value in assay [17] came out at 0.161 nM. Besides, in assay [17], the “IC90 TCR DR (noTHP-1)” value was 0.79 nM. The “EC50 (read off the curve)” value is approximately 1 nM in assay [21] and approximately 5 nM in assay [22]. Moreover, the figures for the EC50 in assay [1] and in assay [2] were 0.952 nM and 5.15 nM, respectively. The molecule further gave a Kd in assay [19] of 3.78 nM. For the same molecule, the “ELISA signal (heat map)” value in [20] is 37100.

B8: 1245_P01_B07 (antibody, IgG1, V domains shown)
VH: EVQLLESGGGLVKPGGSLRLSCAASGFTFSDYYMSWIRQAPGKGLEWVSYISSSGSTIYYADSVKGRFTISRDNAKNSLYLQMNSLRAEDTAVYYCARENYLNAFDIWGRGTLVTVSS
VL: DIQMTQSPSSLSASVGDRVTITCRTSQSLSNYLNWYQQKPGKAPKLLIYAASSLQSGVPSRFSGSGSGTDFTLTISSLQPEDFATYYCQQSYSTPLTFGGGTKLEIK
notes: IgG1
As for B8, the “DELFIA signal at 100 nM L1” value in assay [3] worked out at 64300 fluorescence units. Further, the “TCR downregulation (EC50 µg/ml), 1 donor only” value in assay [16] turned out to be 0.35 µg/mL.

B9: Anti-Vδ1xanti-4-1BB (ADT1-4-2xutomilumab) bispecific antibody (bispecific antibody, human IgG1, kappa)
light: DIQMTQSPPALSASVGDRVTITCRASQDINDWLAWYQHKPGKAPKLLIYDASSLESGVPLRFSGSGSGTEFTLTISSLQPDDFATYYCQQKYSAPQVTFGQGTRLEIKRTVAAPSVFIFPPSDEQLKSGTASVVCLLNNFYPREAKVQWKVDNALQSGNSQESVTEQDSKDSTYSLSSTLTLSKADYEKHKVYACEVTHQGLSSPVTKSFNRGEC
heavy: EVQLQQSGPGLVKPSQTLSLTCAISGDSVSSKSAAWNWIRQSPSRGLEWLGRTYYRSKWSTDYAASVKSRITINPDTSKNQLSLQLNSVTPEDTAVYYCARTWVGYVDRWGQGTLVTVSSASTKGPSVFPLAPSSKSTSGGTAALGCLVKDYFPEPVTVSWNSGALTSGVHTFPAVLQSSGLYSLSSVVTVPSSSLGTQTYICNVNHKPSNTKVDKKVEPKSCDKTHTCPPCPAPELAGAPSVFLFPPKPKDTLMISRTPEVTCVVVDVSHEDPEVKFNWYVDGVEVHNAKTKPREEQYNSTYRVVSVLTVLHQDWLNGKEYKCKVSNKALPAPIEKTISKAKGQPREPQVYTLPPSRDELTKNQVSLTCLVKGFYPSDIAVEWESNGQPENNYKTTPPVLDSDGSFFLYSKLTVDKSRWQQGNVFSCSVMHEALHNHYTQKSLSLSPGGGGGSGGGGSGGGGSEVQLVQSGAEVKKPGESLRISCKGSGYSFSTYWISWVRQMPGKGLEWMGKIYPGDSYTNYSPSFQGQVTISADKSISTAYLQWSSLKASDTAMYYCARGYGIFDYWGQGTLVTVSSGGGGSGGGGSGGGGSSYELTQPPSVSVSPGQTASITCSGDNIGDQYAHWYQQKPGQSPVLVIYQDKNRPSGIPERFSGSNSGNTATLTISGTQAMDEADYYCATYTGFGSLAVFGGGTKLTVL
notes: also called ADT1-4-2x 4-1BB; Vδ1-4-1BB bispecific antibody
In the case of B9, the Kd in assay [23] is 1.2 nM. Further, the “IC50 (read off the curve), Vδ1 TCR downregulation, γδ T-cells with activated 4-1BB+ CD8 T-cells” value in [24] was approximately 0.1 nM. The “EC50 (read off the curve), 4-1BB+ NFAT Jurkat activation assay” value in assay [25] lay within 10 to 20 nM. Moreover, the concentration giving a half-maximal response (EC50 (read off the curve)) in assay [26] was approximately 0.3 nM. Moreover, in [27], the “IC50 (read off the curve), Vδ1 TCR downregulation, γδ T-cells alone” value was approximately 0.2 nM.
